These results are taken from the supplement of paper PMC9170038.

In this data set the test system is MS2 coat protein. Kind of data set: apparent KD of MS2 coat protein; designed switch direction (-1 OFF switch, 1 ON switch): -1; higher = weaker reporter binding. In a few lines:
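The reported apparent KD is a per-design median over clusters, from curve fits of normalised cluster fluorescence. Protein titrations used SNAP-549-labelled MS2 coat protein, doubled from 0.7 or 1.5 nM to 3 µM, in Tris-HCl pH 7.5 buffer with KCl, MgCl2, BSA, DTT, tRNA and Tween-20, with no input, 200 uM small-molecule ligand, or an oligonucleotide input. The RNA switches were transcribed on Illumina chips by stalled E. coli RNA polymerase.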

[1] abbreviates: Eterna round: R95, input ligand: FMN 200 uM.
[2] abbreviates: Eterna round: R95, input ligand: microRNA oligo, concentration not stated.
Setting [3] is: Eterna round: R95, input ligand: none.
Setting [4] is: input ligand: microRNA oligo, concentration not stated.

Regarding “CCGAGGUAGCGGUCCUAUGACAUGAGGAUCACCCAUGUACCUCGCUACGAGCUUUUUGCUCGUCUUAAAAUUCUCGG [Mat - Sensor v3 - turn-off var 1 - JL Mod - D29] (puzzle: Sensor v3, turn-off variant 1)”, the “apparent KD of MS2 coat protein” value was 47 nM under setting [1], 156 nM under setting [2] and 54 nM under setting [3].
As to “CCGCAAAAUGAGGAUAUCGUAUCGGAUACGAUACGAGAAGGCGUAACAUGAGGAUCACCCAUGUGUCCUAGCGG [Fiskers Ex 6 - 35] (puzzle: Exclusion 6)”, the “apparent KD of MS2 coat protein” value under setting [2] was determined as 13.5 nM.
Consider “CCGCAACAUGAGGAUCACCCAUGUCAGGAUAUCGUACGUUCGUCGAUAGACGAUCGUACGAGAAGGGUGUGCGG [Mat - Exclusion 1 - Eli Mod - D35] (Eterna round: R97, puzzle: Exclusion 1)”, for which the “apparent KD of MS2 coat protein” value was 81.5 nM (input ligand: FMN 200 uM) and 103 nM (input ligand: none).
Regarding “CCGCAUAAGCAGGAUAUCGUAUCGGAAACGAUACGAGAAGGGUUUACAUGAGGAUCACCCAUGUUCCUUAGCGG [Mat - Exclusion 6 - Eli Mod - D100] (puzzle: Exclusion 6)”, the “apparent KD of MS2 coat protein” value by setting is: under setting [1], 49.9 nM; under setting [2], 31.5 nM; under setting [3], 32.6 nM.
Take “CCGGAAAUACAGGAUAUAGGAGUCGAUAGACUCCUAGAAGGGUAUACAUGAGGAUCACCCAUGUUCCUUACCGG [Fiskers Ex 6 - 72] (puzzle: Exclusion 6)”: the “apparent KD of MS2 coat protein” value under setting [2] stood at 36.9 nM.
As to “CCGGAAAUACAGGAUAUCGUAUCGGAUACGAUACGAGAAGGGUAUACAUGAGGAUCACCCAUGUGUCCUACCGG [Fiskers Ex 6 - 51] (Eterna round: R96, puzzle: Exclusion 6)”, the “apparent KD of MS2 coat protein” value reads like this: (input ligand: FMN 200 uM) 30.1 nM; under setting [4], 20.2 nM; (input ligand: none) 26.3 nM.
With “CCGGAAAUACAGGAUAUCGUAUCGGAUACGAUACGAGAAGGGUAUACAUGAGGAUCACCCAUGUGUCCUACCGG [Fiskers Ex 6 - 51] (puzzle: Exclusion 6)”, under setting [2], the “apparent KD of MS2 coat protein” value was determined as 23.6 nM.
Regarding “CCGGAAUAACAGGAUAUAGGAGUCGAUAGACACCUAGAAGGGUUGACAUGAGGAUCACCCAUGUGUCCUACCGG [Fiskers Ex 6 - 81] (puzzle: Exclusion 6)”, the “apparent KD of MS2 coat protein” value is, setting by setting: under setting [1], 756 nM; under setting [2], 728 nM; under setting [3], 595 nM.
Consider “CCGGGUCACGUAAGGAUAUCACGCGCAGACGCUAGUGAGAAGGUACAUGAGGAUCACCCAUGUUCCAUUCGCAG [BmEX4 C.5] (Eterna round: R97, puzzle: Brourd's mod of Exclusion 4)”, for which the “apparent KD of MS2 coat protein” value (input ligand: FMN 200 uM) came out at 17.1 nM and the “apparent KD of MS2 coat protein” value (input ligand: none) is 13.8 nM.
Turning to “CCGGUUGGCGCAGGAUAUACAUGAGGAUCACCCAUGUUCAUGAGGAUCACCCAUGAGUUUUUGUUGUAGAAGGGUGGCCCGGCC [A second MS2 with the first and last base exchanged (less A)] (Eterna round: R96, puzzle: Exclusion NG 2)”, the “apparent KD of MS2 coat protein” value reads like this: (input ligand: FMN 200 uM) 23.8 nM; under setting [4], 15 nM; (input ligand: none) 29.4 nM.
As to “CCGUUGGUAGGAUAUCCAACGAUAUACUUGAGGAUCACCCAAGUCCGUAGGGCGUUCGAAGGAGAAGGGCUGAUGG [Zaisaat] (Eterna round: R97, puzzle: Exclusion 5)”, the “apparent KD of MS2 coat protein” value is, setting by setting: (input ligand: FMN 200 uM) 120 nM; (input ligand: none) 108 nM.
The like results for “CCUACUCCCGUUAGGAUAUGUGGAGGCGUACCUCCGUAGAAGGAACAUGAGGAUCACCCAUGUCGCUGUCAUGC [Eternabot (L2) Solution 90] (Eterna round: R97, puzzle: Brourd's mod of Exclusion 4)” were, in that order, 18.4 nM and 19.9 nM.
Turning to “CCUAGACAUGAGGAUCACCCAUGUGAGGAUAUGAUGCGAUCGUCGAAAGACGAUAGCAUCAGAAGGCACAUAUG [Fiskers Ex 1 - 5] (Eterna round: R96, puzzle: Exclusion 1)”, the “apparent KD of MS2 coat protein” value runs as follows: (input ligand: FMN 200 uM) 130 nM; under setting [4], 34.2 nM; (input ligand: none) 37.6 nM.
As to “CCUAGACAUGAGGAUCACCCAUGUGAGGAUAUGAUGCGAUCGUCGAAAGACGAUAGCAUCAGAAGGCACAUAUG [Fiskers Ex 1 - 5] (puzzle: Exclusion 1)”, the “apparent KD of MS2 coat protein” value under setting [2] amounted to 36.9 nM.
Turning to “CCUAUGUGAGGAUAUCACUGGUCUUCUCACUGGAUGAUUAGUGAGAAGGCACAUGAGGAUCACCCAUGUCGGUG [Ex4 - 3 - 51] (Eterna round: R96, puzzle: Exclusion 4)”, the “apparent KD of MS2 coat protein” value by setting is: (input ligand: FMN 200 uM) 633 nM; under setting [4], 482 nM.
On to “CCUAUGUGAGGAUAUCACUGGUCUUCUCACUGGAUGAUUAGUGAGAAGGCACAUGAGGAUCACCCAUGUCGGUG [Ex4 - 3 - 51] (puzzle: Exclusion 4)”, for which the “apparent KD of MS2 coat protein” value under setting [2] was found to be 524 nM.
The same measure, in the same setting: next, “CCUCAGGCGGAGGAUAUCUAACAACAAUAACAAAGAGAAGGCCGCACAUGAGGAUCACCCAUGUGUAUGGGCCG [Bitierre] (puzzle: Exclusion 6)”: 13.1 nM; “CCUCAGUAAGGAUAUCAGCUUAUAAAGUUGGUAAUGAGAGCUGAGAAGGUACAUGAGGAUCACCCAUGUUAGUU [JL Zatite mod 5] (puzzle: Exclusion 4)”: 20.9 nM.
For “CCUCGACAUGAGGAUCACCCAUGUCAGGAUAUUGUGUUUCGGGUUUUUUACCUUUAGGCAAGAAGGGAUGUGUG [LRO-Excl1-16] (puzzle: Exclusion 1)”, the “apparent KD of MS2 coat protein” value under setting [2] turned out to be 15.8 nM.
With “CCUCGUAGGGAGGAUAUCCUUUAAAUUUAAGGAGGAGAAGGCUCAACAUGAGGAUCACCCAUGUAAAAUUUAAA [-17, -14.8 kcal, A 36%] (Eterna round: R97, puzzle: Exclusion 6)”, the “apparent KD of MS2 coat protein” value (input ligand: FMN 200 uM) worked out at 109 nM and the “apparent KD of MS2 coat protein” value (input ligand: none) stood at 78.7 nM.
“CCUCUACAUGAGGAUCACCCAUGUGAGGAUAUCUCGGAGCAGCCACUUAAGGCACUCCAGAGAAGGCACGUGUA [Oreresbe] (puzzle: Exclusion 1)”: under setting [2], the “apparent KD of MS2 coat protein” value was found to be 16.6 nM.
As for “CCUCUGGUAGGAUAUACUGGUGGCGGCAUUAUCGUGAAGGUACAUGAGGAUCACCCAUGUAGAAGGGCUCAAGU [Eternabot (L2) Solution 83] (Eterna round: R97, puzzle: Exclusion 2)”, the “apparent KD of MS2 coat protein” value by setting is: (input ligand: FMN 200 uM) 38.3 nM; (input ligand: none) 37.1 nM.
The like results for “CCUUAGUUAGGAUAUCGGAUUGUUCACGGUGCUCACCGGGUCGAGAAGGAACAUGAGGAUCACCCAUGUCACGA [Eternabot (L1) Solution 72] (Eterna round: R97, puzzle: Exclusion 4)” were, in that order, 60.1 nM and 42.5 nM.
The like results for “CCUUGUCUGAAGGAUAUCCGCCUAAAAGGCAAGGGAGAAGGUUAGACAUGAGGAUCACCCAUGUGCCGGUGUAA [EX6 A.26] (Eterna round: R97, puzzle: Exclusion 6)” were, in that order, 21.7 nM and 25.1 nM.
With “CGACCCAUCAUAGGAUAUCACAGCACGGGAGAAAGUCUGAGGCGUCAACAUGAGGAUCACCCAUGUGAGAAGGAUGGUGGGCAG [Eternabot solution 17] (Eterna round: R96, puzzle: Exclusion NG 2)”, the “apparent KD of MS2 coat protein” value came to 120 nM (input ligand: FMN 200 uM), 184 nM under setting [4] and 162 nM (input ligand: none).
For “CGACGACAUGAGGAUCACCCAUGUCAGGAUAUGGAAAACCAGAAUAUAUUUUAACUUUCCAGAAGGGACAGGUC [Eternabot (Original) Solution 1] (Eterna round: R97, puzzle: Exclusion 1)”, the “apparent KD of MS2 coat protein” value (input ligand: FMN 200 uM) was 19.6 nM and the “apparent KD of MS2 coat protein” value (input ligand: none) is 18.1 nM.
For “CGAGAGCGAGGAUAUACACAACUCCUCACUGUCAAGAAAGGACAUGAGGAUCACCCAUGUAGAAGGUGCAAAAC [Quries] (puzzle: Exclusion 2)”, the “apparent KD of MS2 coat protein” value is 215 nM under setting [1], 125 nM under setting [2] and 120 nM under setting [3].
For “CGAUAAUCCUAGGAUAUGCUAGACGAAAGUCUAGCAGAAGGAGGAACAUGAGGAUCACCCAUGUGUCCUAAUCG [Mat - Exclusion 6 - Eli Mod - D17] (Eterna round: R97, puzzle: Exclusion 6)”, the “apparent KD of MS2 coat protein” value runs as follows: (input ligand: FMN 200 uM) 30.9 nM; (input ligand: none) 15.3 nM.
Take “CGAUAGAUAGGAUAUACAUGAGGAUCACCCAUGUGAACGGGUAGAUUUGUCAACUGAAGUAGAAGGAUCGUCGC [Eternabot (L2) Solution 64] (Eterna round: R97, puzzle: Exclusion 3)”: the “apparent KD of MS2 coat protein” value by setting is: (input ligand: FMN 200 uM) 132 nM; (input ligand: none) 761 nM.
For “CGAUCCGUAGAGGAUAUAGGACGUCAUAGCGAUUUAGAAGGCUACACAUGAGGAUCACCCAUGUACAUUUCAUA [Eternabot (L1) Solution 60] (Eterna round: R97, puzzle: Exclusion 6)” the same measures were 18.9 nM and 18.1 nM.
For “CGAUGAGGAGUGAGGAUAUCGUGUUCGAAAGAACGUGAGAAGGCACAUGAGGAUCACCCAUGUGAUCCUCAUGG [Omei Ex4B A23] (Eterna round: R97, puzzle: Brourd's mod of Exclusion 4)” the same measures were 1030 nM and 164 nM.
The like results for “CGAUGAGGUGUGAGGAUAUCGUGUUCGAAAGAACGUGAGAAGGCACAUGAGGAUCACCCAUGUUAACCUUGUCG [Omei Ex4B A13] (Eterna round: R97, puzzle: Brourd's mod of Exclusion 4)” were, in that order, 11.5 nM and 13.2 nM.
